Experimental data taken from paper doi:10.1101/2021.12.02.471034.
“And” between values parts separate entries of the source, which are not always exact repeats. Equal entries are not always repeated. One block for each molecule: values may come before it.

Key:
Test in all cases: SEC-MALS
[1] = target: Hsf1 CS mutant (C35S/C103S/C153S/C373S/C378S) (human) (UniProt Q00613)
[2] = target: T1, Heat shock factor 1 (Hsf1) (human), Q00613; conditions: remark: other sources report otherwise
T1 chain: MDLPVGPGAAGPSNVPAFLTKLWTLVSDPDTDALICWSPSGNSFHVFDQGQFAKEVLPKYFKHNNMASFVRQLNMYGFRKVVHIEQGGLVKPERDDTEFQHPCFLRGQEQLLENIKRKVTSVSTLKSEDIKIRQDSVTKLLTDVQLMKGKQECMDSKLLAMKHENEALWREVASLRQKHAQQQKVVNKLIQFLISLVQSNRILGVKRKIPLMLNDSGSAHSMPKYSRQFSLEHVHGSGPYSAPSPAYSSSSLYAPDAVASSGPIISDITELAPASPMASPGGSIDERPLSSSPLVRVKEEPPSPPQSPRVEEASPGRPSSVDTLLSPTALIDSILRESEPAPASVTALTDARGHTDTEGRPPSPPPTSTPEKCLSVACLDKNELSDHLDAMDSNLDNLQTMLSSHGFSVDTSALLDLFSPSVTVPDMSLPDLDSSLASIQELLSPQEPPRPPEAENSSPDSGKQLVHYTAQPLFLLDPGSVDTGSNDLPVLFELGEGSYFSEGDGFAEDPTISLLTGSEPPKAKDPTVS

[3] = target: T1, Heat shock factor 1 (Hsf1) (human), …; conditions: remark: other sources report otherwise

stoichiometry N [1]: 5
Molecule: Hsf1 CS mutant (C35S/C103S/C153S/C373S/C378S) (from UniProt Q00613 1-529) (natural protein)

stoichiometry N [2]: 7
stoichiometry N [3]: 9 and < 16
B1: Heat shock factor 1 (Hsf1), Q00613 1-529 (natural protein)
chain: T1 chain
